Key:
[1] = biological target: recombinant human histone octamer assembled into mononucleosomes on 250 bp 601 Widom DNA (human) (UniProt Q71DI3); assay: single-molecule TIRF colocalisation
Halo-Sox2 = Halo-Sox2 (UniProt P48432 1-319); assay: single-molecule TIRF
Sequence of Halo-Sox2 (P48432 whole entry): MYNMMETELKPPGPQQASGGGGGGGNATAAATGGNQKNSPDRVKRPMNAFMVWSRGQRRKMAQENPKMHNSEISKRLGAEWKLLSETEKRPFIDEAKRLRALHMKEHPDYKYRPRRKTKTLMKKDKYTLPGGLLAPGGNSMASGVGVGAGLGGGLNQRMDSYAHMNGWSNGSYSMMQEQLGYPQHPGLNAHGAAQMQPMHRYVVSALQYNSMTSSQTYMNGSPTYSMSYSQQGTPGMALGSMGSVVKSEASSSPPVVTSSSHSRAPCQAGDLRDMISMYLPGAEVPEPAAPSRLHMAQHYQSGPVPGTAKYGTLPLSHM

Sequence of Halo-Sox2 (recombinant, JF549-labelled) (P48432 whole entry): as above

residence time tau2 on MN-6 (state attributed to TF-histone interactions) [1]	Molecule	binding result (Halo-Sox2)
3.4 s	Halo-Sox2 (recombinant, JF549-labelled) (from UniProt P48432 1-319) (natural protein)	–
–	Sdna3 DNA+ 50 bp (dsDNA) DNA 1: AGCACCGCTTAAACGCACGTACGCTTTGTTCCCCGCGTTTTAACCGCCAA DNA 2: TTGGCGGTTAAAACGCGGGGAACAAAGCGTACGTGCGTTTAAGCGGTGCT	binds
